Test results published in paper PMC12151148.
pKd: −log10 of the molar value.

What was measured:
FL-AGS3 (mouse) = test: ITC; 25°C; 50 mM Tris (pH 8.0), 100 mM NaCl, 1 mM EDTA; one protein (0.2 mM) injected into another (0.02 mM); one-site binding model
FL-LGN (mouse) = test: as above
[1] = target: LGN-GL1234 (483–650) (mouse); test: as above
AGS3-TPR (1–405) (mouse) = test: ITC; 25°C; 50 mM Tris (pH 8.0), NaCl raised to 300 mM for AGS3-TPR or AGS3-L, 1 mM EDTA; one protein (0.2 mM) injected into another (0.02 mM); one-site binding model

Gαi3⋅GDP, sequence (P08754 whole entry): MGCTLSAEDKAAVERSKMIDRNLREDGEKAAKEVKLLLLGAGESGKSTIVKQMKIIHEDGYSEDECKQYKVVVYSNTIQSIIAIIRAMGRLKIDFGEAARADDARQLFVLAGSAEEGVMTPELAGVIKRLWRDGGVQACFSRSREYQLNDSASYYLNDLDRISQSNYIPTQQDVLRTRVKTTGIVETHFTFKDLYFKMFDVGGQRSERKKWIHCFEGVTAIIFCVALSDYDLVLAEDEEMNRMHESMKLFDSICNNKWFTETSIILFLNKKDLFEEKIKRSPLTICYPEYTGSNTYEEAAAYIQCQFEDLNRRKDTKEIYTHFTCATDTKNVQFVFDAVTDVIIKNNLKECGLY

pKd (FL-AGS3 (mouse)) | pKd (FL-LGN (mouse)) | stoichiometry N (Gαi3⋅GDP per GoLoco domain) [1] | pKd (AGS3-TPR (1–405) (mouse)) | Substance
5.80 | 5.93 | 4 | – | Gαi3⋅GDP (from UniProt P08754 1-354) (natural protein)
– | – | – | 6.77 | AGS3-GL1234 (470–631) (domain or fragment)
